Test results published in patent US20040146931.

Test system: Gal11P-P53zf zinc finger (artificial)
Assay: cell_activity
Settings: EGFP over control, in vivo site selection

For “CGGGACATGTG (double strand) [in vivo selected P53zf site 2]”, the binding was greater than 2 fold.

Work on “CGGGACACGGG (double strand) [in vivo selected P53zf site 3]” yielded a binding greater than 2 fold.

“CGGGACACGTG (double strand) [in vivo selected P53zf site 1]” was tested, and the binding (matches the consensus) was greater than 2 fold.
